B1: Azoarcus group I ribozyme (parent)
chain: GUGCCUUGCGCCGGGAAACCACGCAAGGGAUGGUGUCAAAUUCGGCGAAACCUAAGCGCCCGCCCGGGCGUAUGGCAACGCCGAGCCAAGCUUCGGCGCCUGCGCCGAUGAAGGUGUAGAGACUAGACGGCACCCACCUAAGGCAAACGCUAUGGUGAAGGCAUAGUCCAGGGAGUGGCGAAAGUCACACAAACCGG

The data set covers variants of B1. The data set is described as follows: reverse-splicing fitness (ratio to wild type); higher = more active; in vitro selection; Mg2+ level not given. The method, boiled down: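 An in vitro group I ribozyme library with randomized positions was T7-transcribed and gel-purified. In triplicate, 10 pmol RNA in EPPS pH 7.5 was reacted with 50 pmoles of a 30-nt RNA substrate for 1 h at 37 °C across several added MgCl2 levels (1–48 mM), then stopped with EDTA. Products were reverse transcribed from a substrate-complementary primer, PCR-amplified and sequenced (HiSeq 4000). Fitness is a variant's read proportion after selection over that before, normalised to wild type.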
C82U A145C C150A U176G: the reverse-splicing fitness is 0.0119. The result for C82U C150A C169U U176G reads 0.0058. Regarding C82U C150A C169U U176A, the reverse-splicing fitness was determined as 0.0169. As for C82U C150A C169U U176C, the figure is 0.0153. The result for C82U A120U C150U C169U U176C reads 0.0038; that for C82U A120U C150U C169U U176A, 0.00407; that for C82U A120U C150U C169U U176G, 0.00209. As for C82U A145G C150G C169G, the figure is 0.00814; as for C82U A145G C150G C169U, 0.00979. Consider C82U A145G C150G C169A, for which the reverse-splicing fitness amounted to 0.00942. The result for C82U C150G C169U U176C reads 0.01; that for C82U C150G C169U U176G, 0.0055. As for C82U C150G C169U U176A, the figure is 0.0076; as for C82U U176A, 0.386. The result for C82U A120U C150A reads 0.0169; that for C82U A120U C150U, 0.0886; that for C82U A120U C150G, 0.0156.

With C82U A145U C150G C169U U176G, the reverse-splicing fitness was determined as 0.00514. The result for C82U A145U C150G C169U U176C reads 0.0114; that for C82U A145U C150G C169U U176A, 0.00782. The result for C82U A145U C150G C169A U176A reads 0.0105; that for C82U A145U C150G C169A U176G, 0.00523; that for C82U A145U C150G C169A U176C, 0.00964. The result for C82U C169A U176C reads 0.0154; that for C82U C169A U176A, 0.0127. Consider C82U C169A U176G, for which the reverse-splicing fitness is 0.00439. The result for C82U A145U C150A C169A U176A reads 0.0106; that for C82U A145U C150A C169A U176G, 0.00546; that for C82U A145U C150A C169A U176C, 0.00744. As for C82U A120U C150U C169U, the figure is 0.00548; as for C82U A120U C150U C169A, 0.00404; as for C82U A120U C150U C169G, 0.00457.

With C82U A145G C150G C169G U176A, the reverse-splicing fitness amounted to 0.01. Consider C82U A145G C150G C169G U176G, for which the reverse-splicing fitness was determined as 0.00548. The result for C82U A145G C150G C169G U176C reads 0.0124; that for C82U C169U, 0.0149; that for C82U C169G, 0.00984. On to C82U C169A, for which the reverse-splicing fitness is 0.00905.

Regarding C82U A120U A145U U176C, the reverse-splicing fitness is 0.0847. The result for C82U A120U A145U U176A reads 0.0411; that for C82U A120U A145U U176G, 0.013. As for C82U A120U A145U C169U, the figure is 0.00594; as for C82U A120U A145U C169A, 0.00208; as for C82U A120U A145U C169G, 0.00533. As for C82U C150U C169G U176C, the figure is 0.015; as for C82U C150U C169G U176G, 0.0052.

On to C82U C150U C169G U176A, for which the reverse-splicing fitness is 0.0135. Regarding C82U A145U C169U U176G, the reverse-splicing fitness worked out at 0.00406. The result for C82U A145U C169U U176A reads 0.0111; that for C82U A145U C169U U176C, 0.0127. The result for C82U A145C C150U C169U reads 0.00874. The result for C82U A145C C150U C169G reads 0.00634. As for C82U A145C C150U C169A, the reverse-splicing fitness turned out to be 0.00695. The result for C82U C150G C169A U176C reads 0.01.

As to C82U C150G C169A U176A, the reverse-splicing fitness worked out at 0.0115. With C82U C150G C169A U176G, the reverse-splicing fitness was determined as 0.00612.

With C82U C150U C169U U176A, the reverse-splicing fitness is 0.0128. Take C82U C150U C169U U176G: the reverse-splicing fitness is 0.00558.

As for C82U C150U C169U U176C, the reverse-splicing fitness amounted to 0.0135. The result for C82U A145U C150A C169U U176C reads 0.0101. As for C82U A145U C150A C169U U176A, the figure is 0.0118; as for C82U A145U C150A C169U U176G, 0.00535; as for C82U A145U U176G, 0.153.

Regarding C82U A145U U176A, the reverse-splicing fitness is 0.412. The result for C82U A145U U176C reads 0.477; that for C82U A145G C150A C169G U176C, 0.0265. With C82U A145G C150A C169G U176G, the reverse-splicing fitness was 0.0053. As for C82U A145G C150A C169G U176A, the figure is 0.0162; as for C82U C169U U176G, 0.00445. As for C82U C169U U176C, the figure is 0.0155; as for C82U C169U U176A, 0.0123. As for C82U C150U C169A U176G, the figure is 0.00561.

C82U C150U C169A U176C: the reverse-splicing fitness is 0.0123. The result for C82U C150U C169A U176A reads 0.0154; that for C82U A120U C169A, 0.00227; that for C82U A120U C169U, 0.00737. As for C82U A120U C169G, the figure is 0.00592; as for C82U A120U A145U C150U U176G, 0.00848.

In the case of C82U A120U A145U C150U U176C, the reverse-splicing fitness was 0.0465. As for C82U A120U A145U C150U U176A, the figure is 0.0284. Consider C82U C150A C169G U176C, for which the reverse-splicing fitness came out at 0.0184. The result for C82U C150A C169G U176G reads 0.00558; that for C82U C150A C169G U176A, 0.0177.

Values taken from the RNAGym collection of RNA variant scans (doi:10.1093/molbev/msab373).
